Test results from patent US20050048073A1, “Methods of determining west nile virus epitopes and method of using the same” (priority 2001, published 2005).
Where “and” joins values, the source holds several entries; their conditions need not be identical. Equal values may be shown once.

What was measured:
HLA B*07 = HLA B*07 (Homo sapiens, UniProt P01889); experiment: T2B7 binding assay (stabilization of HLA B*07 on TAP-deficient T2 cells, FACS); settings: for Avg. Fold Inc. @ 200: fold increase over background; for Avg. Fold Inc. @ 200 / Avg. MFI 200: peptide at 200 ug/ml; for Avg. MFI 200: mean fluorescence index; for Binding number (binding score): numerical sum of all the positive assays; for Binding strength: rated strong, moderate, weak or none by number of significantly positive wells
Protocol: Triplicate wells of peptide at 10, 20, 200 ug/ml were evaluated in each of the T2 B7 binding assays; each assay was repeated 4 times. […] The “binding score” column provides the numerical sum of all the positive assays in the binding summary column.
The T2B7 binding assay method is well described in the literature and operational in the laboratory. This assay relies on the ability of exogenously added peptides to stabilize the class I MHC/beta 2 microglobulin structure on the surface of transporters associated with antigen processing (TAP)-deficient cell lines. Briefly, HLA B*07 T2 cell lines were prepared by incubating overnight (16 hours) at 26° C. Just prior to the binding assay these cells were washed twice in serum-free media. Solutions of the test peptides at three concentrations (final concentration of 10, 20, and 200 ug/ml in RPMI 1640 (Sigma, St. Louis, Mo.)) were plated in triplicate wells of a 96 well, round-bottom assay plate (Beckton Dickinson, Lincoln Park, N.J.). Sixteen wells containing cells without peptide were included in each plate, serving as the no-peptide control (background control) for the assay.
100,000 cells were added to each well, and the plates were then incubated for four hours at 37° C., 5% CO2 The plates were then spun at 110×g for 10 minutes at 4° C., supernatant is discarded and the remaining cells are re-suspended. One hundred uL of diluted primary antibody-containing hybridoma supernatant (1:10 dilution of ME1 supernatant produced by HB-119 cell line from ATCC) in staining buffer (PBS, 5% FBS, 0.1% sodium azide) was added to all of the wells except 8 wells per assay plate (each containing 200 ug/ml of one study peptide, these wells served as controls for non-specific binding of secondary antibody). Primary antibody was incubated with the peptide-pulsed cells for 30 minutes at 4° C. After washing three times, the cells were re-suspended, and 100 uL of a 1:250 dilution of FITC-labeled secondary antibody (FITC labeled Goat F(ab′)2 Anti-mouse IgG (H+L) from Caltag) in staining buffer were added to all wells. The plates were incubated for 30 minutes at 4° C., and subsequently washed three times. The contents of each well were then resuspended in 200 uL of fixing buffer (PBS, 1% paraformaldehyde), and aliquoted into FACS tubes.
The 16 negative control wells in each plate contained no peptide but did contain cells, primary antibody and secondary antibody. An additional set of triplicate wells was plated with peptide at the highest concentration (200 ug/ml), but no primary antibody was added to the wells to control for non-specific secondary antibody binding. One positive control peptide (the known B*07 binder) was tested at three concentrations (in triplicate wells) in each assay plate.
Following fixing, the presence of fluorescent secondary antibody on the surface of T2 cells (gated to the appropriate cell size) was measured at 488 nm on a FACScan flow cytometer (Becton-Dickinson, New Jersey). The mean linear fluorescence […] of 10,000 events was measured and compared to the background fluorescence of cells plated in (no peptide) control wells. A positive response was defined as a 10% increase over baseline MLF and p<0.05, in more than one concentration in each of four assays. The assays are repeated 4 times for each concentration of peptide. Each peptide was tested in a total of 36 wells (triplicate wells, three concentrations, four assays).

HLA B*07 (human) [1] = experiment: T2B7 HLA stabilisation assay, flow cytometry, peptide at 200 ug/ml
HLA B*07 (human) [2] = experiment: T2B7 HLA stabilisation assay, flow cytometry, 10/20/200 ug/ml, four assays; settings: for Binding results (total of four assays): scale: of 3 concentrations positive

Molecule	Avg. Fold Inc. @ 200 (HLA B*07)	Avg. MFI 200 (HLA B*07)	Binding number (binding score) (HLA B*07)	Binding strength (HLA B*07)	further results
GPGHKARVLA [HIV-1 B7 1291, reference compound]	2.2 and 1.5 and 1.6	1423.8 and 1370.9 and 1003.9	8 and 9	moderate (stabilized HLA B*07 to a moderate degree (receiving binding scores of 6 to 8))	Binding number (binding score) (HLA B*07; listed as WC 1291): eight to nine; Binding strength (HLA B*07; listed as WC 1291): moderately well
VPCRGQDELV [WNB7 010]	1.0	658.6	4	weak (weak binders (binding score of 4))	
PEDIDCWCTK [WNVB7 3399]	1.1	990.3	1	non-binder (did not bind (binding score of 2))	stabilization of HLA B*07 on the surface of T2B7 cells (HLA B*07): did not stabilize T2B7 to a significant degree
KPTGSASSLV [WNB7 015]	1.7	1070.2			Binding number (binding score) (HLA B*07; listed as WNVB7 0015): 6; Binding strength (HLA B*07; listed as WNVB7 0015): moderate (stabilized HLA B*07 to a moderate degree (receiving binding scores of 6 to 8))
NPMILAAGLI [WNB7 007]	1.1	944.6	2	non-binder (did not bind (binding score of 2))	
TPGLRCLNLD [WNB7 024]	1.0	849.6	2	non-binder (did not bind (binding score of 2))	
RPQRHDEKTL [WNB7 019]	2.8	1644.6	11	strong (stabilized HLA B7 on the surface of T2B7 cells at more than two concentrations in all four replicate assays, receiving a total binding score of 10, 11, 11, 12, and 12)	affinity to B*07 in vitro compared with previously published B*07 epitope GPGHKARVLA (from HIV-1) (HLA B*07): much greater affinity
TPAAPSYTLK [WNB7 009]	1.5	954.5			Binding number (binding score) (HLA B*07; listed as WNVB7 0009): 8; Binding strength (HLA B*07; listed as WNVB7 0009): moderate (stabilized HLA B*07 to a moderate degree (receiving binding scores of 6 to 8))
GPGHEEPQLV [WNB7 011]	1.0	848.9	2	non-binder (did not bind (binding score of 2))	
RPRWIDARVY [WNB7 017]	1.9	1714.0	11	strong (stabilized HLA B7 on the surface of T2B7 cells at more than two concentrations in all four replicate assays, receiving a total binding score of 10, 11, 11, 12, and 12)	affinity to B*07 in vitro compared with previously published B*07 epitope GPGHKARVLA (from HIV-1) (HLA B*07): much greater affinity
PETPQGLAKI [WNVB7 3403]	1.0	588.9	0	non-binder (did not bind (binding score of 2))	stabilization of HLA B*07 on the surface of T2B7 cells (HLA B*07): did not stabilize T2B7 to a significant degree
AVKDELNTLL [WNB7 004]	1.0	842.5	0	non-binder (did not bind (binding score of 2))	
PRTNTILEDN [WNVB7 3415]	0.9	778.6	0	non-binder (did not bind (binding score of 2))	stabilization of HLA B*07 on the surface of T2B7 cells (HLA B*07): did not stabilize T2B7 to a significant degree
EPPEGVKYVL [WNB7 013]	1.1	681.7			Binding number (binding score) (HLA B*07; listed as WNVB7 0013): 6; Binding strength (HLA B*07; listed as WNVB7 0013): moderate (stabilized HLA B*07 to a moderate degree (receiving binding scores of 6 to 8))
VPGTKIAGML [WNB7 018]	1.7	1088.4			Binding number (binding score) (HLA B*07; listed as WNVB7 0018): 6; Binding strength (HLA B*07; listed as WNVB7 0018): moderate (stabilized HLA B*07 to a moderate degree (receiving binding scores of 6 to 8))
SPHRVPNYNL [WNB7 020]	2.5	1607.9	12	strong (stabilized HLA B7 on the surface of T2B7 cells at more than two concentrations in all four replicate assays, receiving a total binding score of 10, 11, 11, 12, and 12)	affinity to B*07 in vitro compared with previously published B*07 epitope GPGHKARVLA (from HIV-1) (HLA B*07): much greater affinity
RPAADGRTVM [WNB7 023]	1.5	979.1	12	strong (stabilized HLA B7 on the surface of T2B7 cells at more than two concentrations in all four replicate assays, receiving a total binding score of 10, 11, 11, 12, and 12)	affinity to B*07 in vitro compared with previously published B*07 epitope GPGHKARVLA (from HIV-1) (HLA B*07): much greater affinity
IPAGFEPEML [WNB7 008]	1.9	1207.4	10	strong (stabilized HLA B7 on the surface of T2B7 cells at more than two concentrations in all four replicate assays, receiving a total binding score of 10, 11, 11, 12, and 12)	affinity to B*07 in vitro compared with previously published B*07 epitope GPGHKARVLA (from HIV-1) (HLA B*07): much greater affinity
APAYSFNCLG [WNB7 005]	1.2	743.5			Binding number (binding score) (HLA B*07; listed as 0005): 8; Binding number (binding score) (HLA B*07; listed as WNVB7 0005): 8; Binding strength (HLA B*07; listed as WNVB7 0005): moderate (stabilized HLA B*07 to a moderate degree (receiving binding scores of 6 to 8))
PFPESNSPIS [WNVB7 3411]	1.0	626.7	1	non-binder (did not bind (binding score of 2))	stabilization of HLA B*07 on the surface of T2B7 cells (HLA B*07): did not stabilize T2B7 to a significant degree
PRTNTILEDN [WNVB7 3415]					Avg. Fold Inc. @ 200 (fold over background) (HLA B*07 (human) [1]): 0.9; Avg. MFI 200 (HLA B*07 (human) [1]): 779 MFI; Binding number (binding score) (HLA B*07 (human) [2]): 0; Binding results (total of four assays) (HLA B*07 (human) [2]; in 4 assays): 0
NPMILAAGLI [WNVB7 0007]					Avg. Fold Inc. @ 200 (fold over background) (HLA B*07 (human) [1]): 1.1; Avg. MFI 200 (HLA B*07 (human) [1]): 945 MFI; Binding number (binding score) (HLA B*07 (human) [2]): 2; Binding results (total of four assays) (HLA B*07 (human) [2]; in 2 assays): 1
PFPESNSPIS [WNVB7 3411]					Avg. Fold Inc. @ 200 (fold over background) (HLA B*07 (human) [1]): 1; Avg. MFI 200 (HLA B*07 (human) [1]): 627 MFI; Binding number (binding score) (HLA B*07 (human) [2]): 1; Binding results (total of four assays) (of 3 concentrations positive, in 1 assay) (HLA B*07 (human) [2]): 1
AVKDELNTLL [WNVB7 0004]					Avg. Fold Inc. @ 200 (fold over background) (HLA B*07 (human) [1]): 1; Avg. MFI 200 (HLA B*07 (human) [1]): 842 MFI; Binding number (binding score) (HLA B*07 (human) [2]): 0; Binding results (total of four assays) (HLA B*07 (human) [2]; in 4 assays): 0
AAKKKGASLL [WNVB7 0006]					Avg. Fold Inc. @ 200 (fold over background) (HLA B*07 (human) [1]): 1.2; Avg. MFI 200 (HLA B*07 (human) [1]): 708 MFI; Binding number (binding score) (HLA B*07 (human) [2]): 4; Binding results (total of four assays) (HLA B*07 (human) [2]; in 4 assays): 1
